Measurements reported in IntAct's records for PubMed 24165324.

Biological target: gsk3b_human GSK3B (UniProt P49841)
Sequence of UniProt P49841 (P49841 whole entry, looked up): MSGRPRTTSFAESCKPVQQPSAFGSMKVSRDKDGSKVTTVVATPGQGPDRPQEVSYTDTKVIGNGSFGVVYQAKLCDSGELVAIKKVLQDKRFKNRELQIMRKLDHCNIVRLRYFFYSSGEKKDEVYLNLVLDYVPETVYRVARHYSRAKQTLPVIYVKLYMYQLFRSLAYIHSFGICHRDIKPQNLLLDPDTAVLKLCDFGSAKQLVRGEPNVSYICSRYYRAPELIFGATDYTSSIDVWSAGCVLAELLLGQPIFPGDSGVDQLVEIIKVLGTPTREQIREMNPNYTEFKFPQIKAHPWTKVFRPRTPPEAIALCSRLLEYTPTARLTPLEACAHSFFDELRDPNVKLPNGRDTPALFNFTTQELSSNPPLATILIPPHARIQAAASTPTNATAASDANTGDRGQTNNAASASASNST

- effect of a mutation on the interaction: increasing interaction
Substance: Leucine-rich repeat serine/threonine-protein kinase 2 (Homo sapiens), Q5S007 G2019S
